Values of other authors in patent US7718413B2, “Glycosylation variants of BACE” (Elan Pharmaceuticals, Inc., priority 2003, dated 2010).
Non-standard residues stand in square brackets, D forms with d. No end group written: not given here. Sta = CC(C)C[C@H](N)[C@@H](O)CC(=O)O

Target: β-secretase (Homo sapiens, UniProt P56817)
Conditions: previous studies

β-secretase, sequence (P56817 46-501): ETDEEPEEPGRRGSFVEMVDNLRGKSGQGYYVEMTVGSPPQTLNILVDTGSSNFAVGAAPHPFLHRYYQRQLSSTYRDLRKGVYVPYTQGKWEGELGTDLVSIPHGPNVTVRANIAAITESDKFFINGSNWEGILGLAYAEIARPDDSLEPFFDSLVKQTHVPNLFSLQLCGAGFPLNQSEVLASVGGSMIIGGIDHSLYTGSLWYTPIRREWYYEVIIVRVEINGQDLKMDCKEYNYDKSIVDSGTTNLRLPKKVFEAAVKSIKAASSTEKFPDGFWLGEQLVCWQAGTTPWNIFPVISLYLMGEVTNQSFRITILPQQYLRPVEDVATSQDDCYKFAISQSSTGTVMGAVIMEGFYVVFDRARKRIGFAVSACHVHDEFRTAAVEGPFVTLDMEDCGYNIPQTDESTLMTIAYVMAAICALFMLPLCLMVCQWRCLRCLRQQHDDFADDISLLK

KTEEISEVN[sta]VAEF (KTEEISEVN[Sta]VAEF) [P10-P4′staD→V]
inhibitor of the enzyme (potency in words): reasonably potent inhibitor
